Experimental data: patent publication US20190062422A1 (MorphoSys, published 2019)
Positions count from the first letter of the chain named.

T1: human IL17C (human, UniProt Q9P0M4 19-197)
T1 sequence: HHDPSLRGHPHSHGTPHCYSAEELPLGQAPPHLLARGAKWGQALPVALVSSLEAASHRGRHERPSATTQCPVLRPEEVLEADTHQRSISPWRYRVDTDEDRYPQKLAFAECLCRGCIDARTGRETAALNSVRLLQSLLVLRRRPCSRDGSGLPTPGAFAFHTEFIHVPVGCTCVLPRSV

T2: mouse IL-17B (mouse, UniProt Q9QXT6 23-180, limits assumed)
T2 sequence (looked up): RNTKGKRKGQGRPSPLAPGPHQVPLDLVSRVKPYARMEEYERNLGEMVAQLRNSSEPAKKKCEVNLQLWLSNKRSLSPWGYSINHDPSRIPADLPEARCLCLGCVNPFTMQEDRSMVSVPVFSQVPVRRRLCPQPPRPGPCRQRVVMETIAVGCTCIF

T3: mouse IL17C (mouse, UniProt Q8K4C5 17-194, limits assumed, biotinylated in the receptor interaction, inhibition and serum stability assays (sites not given))
T3 construct: Bought recombinant protein; About 22 kDa reduced and about 40 kDa non-reduced on SDS-PAGE; Used plain (coated, ELISA) or biotinylated; also called biotinylated mouse IL17C; biotin-IL17C
T3 sequence (looked up): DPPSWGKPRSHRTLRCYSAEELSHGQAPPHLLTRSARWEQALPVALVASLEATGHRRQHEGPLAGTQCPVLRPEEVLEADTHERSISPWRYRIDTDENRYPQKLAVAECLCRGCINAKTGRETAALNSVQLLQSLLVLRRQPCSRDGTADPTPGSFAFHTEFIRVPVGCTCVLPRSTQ

B1: MOR12741 (antibody, V domains shown)
VH: QVQLVQSGAEVKKPGSSVKVSCKASGGTFSSYAISWVRQAPGQGLEWMGMIMPEVGMADYAQKFQGRVTITADESTSTAYMELSSLRSEDTAVYYCARDFIAVGSLEIWHYYYGLDVWGQGTLVTVSS
VL: DIELTQPPSVSVSPGQTASITCSGDNIGEHYASWYQQKPGQAPVLVISYDNERPSGIPERFSGSNSGNTATLTISGTQAEDEADYYCQSWTSQKPDYVFGGGTKLTVLG
notes: Tested as human-mouse chimeric IgG2a (human variable, mouse constant regions); Potential N-linked glycosylation sites were removed by site-directed mutagenesis
B2: MOR12756 (antibody, V domains shown)
VH: QVQLQQSGPGLVKPSQTLSLTCAISGDSVSDNSVAWNWIRQSPSRGLEWLGRIYYRSKWYNDYAVSVKSRITINPDTSKNQFSLQLNSVTPEDTAVYYCAREVLLFPARSYGTGMDVWGQGTLVTVSS
VL: DIELTQPPSVSVSPGQTASITCSGDNLPSKYVHWYQQKPGQAPVLVIYDDNERPSGIPERFSGSNSGNTATLTISGTQAEDEADYYCGVADMPRQMKVFGGGTKLTVLG
notes: as for B1
B3: MOR12751 (antibody, V domains shown)
VH: QVQLQQSGPGLVKPSQTLSLTCAISGDSVSSNSAAWNWIRQSPSRGLEWLGVIYYRSKWYINYADSVKSRITINPDTSKNQFSLQLNSVTPEDTAVYYCAREGIVGGWFAYWGQGTLVTVSS
VL: DIELTQPPSVSVSPGQTASITCSGDKLGSKIAHWYQQKPGQAPVLVIYDDNERPSGIPERFSGSNSGNTATLTISGTQAEDEADYYCQSWDYLSWSVVFGGGTKLTVL
notes: as for B1
B4: MOR12758 (antibody, V domains shown)
VH: EVQLVQSGAEVKKPGESLKISCKGSGYSFTDYWISWVRQMPGKGLEWMGAIDPTDSYTRYSPSFQGQVTISADKSISTAYLQWSSLKASDTAMYYCARWYTSHPYYEGRYPMDVWGQGTLVTVSS
VL: DIALTQPASVSGSPGQSITISCTGTSSDVGHYNYVSWYQQHPGKAPKLMIYGVTKRPSGVSNRFSGSKSGNTASLTISGLQAEDEADYYCASADEWPTLHVFGGGTKLTVLG
notes: as for B1
B5: MOR12757 (antibody, V domains shown)
VH: EVQLLESGGGLVQPGGSLRLSCAASGFTFSSYAMSWVRQAPGKGLEWVSFISSGGSETFYADSVKGRFTISRDNSKNTLYLQMNSLRAEDTAVYYCARVSYIYYYSWVLFDVWGQGTLVTVSS
VL: DIQMTQSPSSLSASVGDRVTITCRASQGIGTALNWYQQKPGKAPKLLIYDVSSLQSGVPSRFSGSGSGTDFTLTISSLQPEDFATYYCQQGLFLPFTFGQGTKVEIKR
notes: as for B1
B6: MOR12755 (antibody, V domains shown)
VH: QVQLQQSGPGLVKPSQTLSLTCAISGDSVSSNSAAWNWIRQSPSRGLEWLGKTYYRSTWSNDYAESVKSRITINPDTSKNQFSLQLNSVTPEDTAVYYCAREMDSLTRSASSIAFDYWGQGTLVTVSS
VL: DIELTQPPSVSVSPGQTASITCSGDNLREHYVHWYQQKPGQAPVLVIYDDTERPSGIPERFSGSNSGNTATLTISGTQAEDEADYYCATRDWSNVVFGGGTKLTVLG
notes: as for B1
B7: MOR12759 (antibody, V domains shown)
VH: EVQLVQSGAEVKKPGESLKISCKGSGYSFNNYWIAWVRQMPGKGLEWMGFIYPSNSATQYSPSFQGQVTISADKSISTAYLQWSSLKASDTAMYYCARDNEYSDSYFDVWGQGTLVTVSS
VL: DIVLTQSPATLSLSPGERATLSCRASQIVSSYLAWYQQKPGQAPRLLIYDASSRATGIPARFSGSGSGTDFTLTISSLEPEDFAVYYCQQSVNFPTTFGQGTKVEIKR
notes: as for B1
B8: MOR12760 (antibody, V domains shown)
VH: B7 VH
VL: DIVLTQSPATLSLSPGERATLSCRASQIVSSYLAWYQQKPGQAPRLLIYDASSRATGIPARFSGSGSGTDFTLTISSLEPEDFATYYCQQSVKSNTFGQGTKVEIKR
notes: as for B1
B9: MOR12762 (antibody, V domains shown)
VH: B7 VH
VL: B7 VL with V92E, N93Q, F94V
notes: as for B1
B10: MOR12761 (antibody, V domains shown)
VH: B7 VH
VL: B7 VL with V85T, V92N, N93G, F94W, P95L, T96P
notes: as for B1
B11: MOR12743 (antibody, V domains shown)
VH: QVQLVQSGAEVKKPGASVKVSCKASGYTFTSNFIHWVRQAPGQGLEWMGWISPYNGDTNYAQKFQGRVTMTRDTSISTAYMELSRLRSEDTAVYYCARESVYYGSDYGYNGMDIWGQGTLVTVSS
VL: DIELTQPPSVSVSPGQTASITCSGDNLGEEYVSWYQQKPGQAPVLVIYDDTKRPSGIPERFSGSNSGNTATLTISGTQAEDEADYYCASWDLWSVEVFGGGTKLTVLG
notes: Tested as human-mouse chimeric IgG2a (human variable, mouse constant regions); Potential N-linked glycosylation sites were removed by site-directed mutagenesis; also called MOR12743_h/m; MOR1243
B12: MOR12740 (antibody, V domains shown)
VH: QVQLVQSGAEVKKPGSSVKVSCKASGGTFSIYAISWVRQAPGQGLEWMGGIIPILGIANYAQKFQGRVTITADESTSTAYMELSSLRSEDTAVYYCARDATHSYYHDYWGQGTLVTVSS
VL: DIALTQPASVSGSPGQSITISCTGTSSDVGSYETVSWYQQHPGKAPKVMIYEVSDRPSGVSNRFSGSKSGNTASLTISGLQAEDEADYYCGSFAHWGSWVFGGGTKLTVLG
notes: as for B1

Tests used:
[1] = target: T1, human IL17C; experiment: ELISA, purified chimeric human/mouse IgG2a on huIL-17C
[2] = target: T2, mouse IL-17B; experiment: ELISA, purified chimeric human/mouse IgG2a on msIL-17B
[3] = target: T3, mouse IL17C; experiment: ELISA, purified chimeric human/mouse IgG2a titrated on mouse IL17C, n=1-2
Protocol: All purified chimeric human-mouse chimeric IgG2a antibodies were titrated on mouse IL17C for EC₅₀ determination in ELISA starting with a concentration of 100 nM. EC₅₀ values on mouse IL17C were determined in 1 to 3 independent experiments.

[4] = target: T3, mouse IL17C; experiment: ELISA on biotin-IL17C captured on avidin: chimeric IgG2a incubated 24 h at 37°C in mouse serum against freshly diluted IgG2a
Protocol: 96 well Maxisorp plates (Nunc; #442404) were coated with avidin at a concentration of 1 μg/ml in PBS overnight at 4° C. The next day, anti-IL17 chimeric IgG2a were incubated in mouse serum for 24 h at 37° C. at a final concentration 100 μg/mL. After the incubation step the antibodies were diluted 1:100 in LowCross buffer (Candor Bioscience; #100500). As a reference the same set of antibodies were freshly diluted in LowCross buffer+1% mouse serum and incubated for 30 min at RT. Avidin coated plates were incubated with blocking buffer (Superblock blocking buffer from Pierce, #37515) and subsequently 100 μL of 0.1 μg/mL biotin-IL17C in LowCross buffer was added to blocked wells. After a washing step a serial dilution of the serum-incubated and freshly diluted IgGs was added. Binding of IgGs was detected by anti-mouse-IgG2a POD conjugated detection antibody (diluted 1:5000 in LowCross buffer) using TMB One Component HRP as substrate. The reaction was stopped by adding 1M HCl and absorbance was measured at 450 nm.

[5] = target: T3, mouse IL17C; experiment: solution equilibrium titration (SET), ECL based, monovalent Fab fragment (Fab_FH format)
Protocol: Monovalent affinities of anti-IL17C antibodies were determined by solution equilibrium titration (SET) using Fab fragments. Affinity determination in solution was basically performed as described in the literature (Friquet et al., (1985) J. Immunol. Meth. 77: 305-19). In order to improve the sensitivity and accuracy of the SET method, it was transferred from classical ELISA to ECL based technology (Haenel et al. (2005) Anal Biochem. 339.1: 182-84). Binders were expressed and purified in Fab_FH format.

[6] = target: T3, mouse IL17C; experiment: mIL17C - mIL-17RE inhibition assay (MSD): human/mouse IgG2a pre-incubated with biotinylated mouse IL17C, binding to coated mouse IL17RE/Fc detected by Streptavidin-ECL
Protocol: To determine inhibitory activity of purified anti-IL17C human-mouse chimeric IgG2a in a mIL-17 RE interaction assay, Maxisorp™ 384 well MSD plates were coated with 30 μL mouse IL17RE/Fc at 75 ng/mL in PBS at 4° C. overnight. The next day 25 μL of a serial antibody dilution (concentrations from 0.001 to 100 nM) were pre-incubated for 30 min at RT with an equal volume of biotinylated mouse IL17C at 0.125 nM. After blocking of plates for 1 h with 2.5% BSA in PBST, preformed antibody-ligand complexes were added for 1 h to coated IL17RE/Fc and receptor binding was detected via Streptavidin-ECL using MSD Sector Imager.
To characterize the antibodies in human/mouse IgG2a format in more detail, for each candidate IC₅₀ values were determined in the IL-17 receptor E inhibition assay as described herein above in up to 4 independent experiments.

| Binder | binding result [1] | binding result [2] | EC50 [3] | Coefficient of variation (Mouse Serum Stability Assay 24h/37°C) [4] | binding result [5] | IC50 [6] | Kd [5] |
| --- | --- | --- | --- | --- | --- | --- | --- |
| B1 | no binding | no binding | 0.47 nM | 13% |  |  |  |
| B2 |  |  |  |  | no binding |  |  |
| B3 | no binding | no binding | 0.39 nM | 3.75% |  | 0.16 nM |  |
| B4 |  |  |  |  | no binding |  |  |
| B5 |  |  |  |  | no binding |  |  |
| B6 |  |  |  |  | no binding |  |  |
| B7 | no binding | no binding | 0.29 nM | 8.8% |  | 0.028 nM | 0.22 nM |
| B8 | no binding | no binding | 0.27 nM | 35.3% |  | 0.122 nM |  |
| B9 | no binding | no binding | 0.4 nM | 2.43% |  | 0.009 nM | 0.096 nM |
| B10 | no binding | no binding | 0.36 nM | 1.23% |  | 0.024 nM | 0.085 nM |
| B11 | no binding | no binding | 0.3 nM | 2.88% |  | 0.016 nM | 0.048 nM |
| B12 | no binding | no binding | 1.14 nM |  |  | 3.49 nM | 0.17 nM |
